Experimental data: the DeepSol protein solubility set

Assay: soluble on expression in E. coli; label from the status in PepcDB or PDB records

Row | Sequence | soluble on expression in E. coli
1 | ILDTKPIPTIVDATTLGISGNTSGDYWLPTTMSLYQKELTDQIVSLHYSDILRYFETSHYKEDVILESMKTMCLNGSLVATHPYLLIDHYMPKSLITRDVPAHLAENSGKFSVLRDLINLVQEYETETAIVCRPGRTMDLLEALLLGNKVHIKRYDGHSIKSAAAANDFSCTVHLFSSEGINFTKYPIKSKARFDMLICLDTTVDTSQKDIQYLLQYKRERKGLERYAPIVRLVAINSIDHCRLFFGKKFDKNSREYLENVTAAMVILRDRLGTLPPDLRPIYSQKLHYLVEWLENPTVPWPLPDIYPLKQYTSMDVERSLLTEVHFK | soluble
2 | MMDVSGVGFPSKVPWKKMSAEELENQYCPSRWVVRLGAEEALRTYSQIGIEATTRARATRKSLLHVPYGDGEGEKVDIYFPDESSEALPFFLFFHGGYWQSGSKDESAFMVHPLTAQGVAVVIVAYGIAPKGTLDHMVDQVTRSVAFVQKRYPSNKGIYLCGHSAGAHLAAMMLLADWTKHGVTPNLRGFFLVSGVFDLEPIVYTSQNVALQLTLEDAQRNNPQLKVAQAQPVDPTCRVLVVVGQFDSPEFHRQSWEFYQVLPVQTLCQGEWKASFEELHDVDHFEIVENLTQKDNVLTQIILKTIFQ | soluble
3 | MMKMIIAIVQDQDSQELADQLVKNNFRATKLATTGGFLRAGNTTFLCGVNDDRVDEILSVINQTCGNREQLVSPITPMGGSADSYIPYPVEVEVGGATVFVMPVDAFHQFLEHHHHHH | soluble
4 | MTEMIRPRVKYVIGPDGSPLTIADLPPANTRRWVIRRKAEVVAAVRGGLLSLEEACERYTLTVEEFLSWQSSISDHGLAGLRTTRIQQYRHAAALEHHHHHH | soluble
5 | GSHMSSGYPGVSWNKRMCAWLAFFYDGASRRSRTFHPKHFNMDKEKARLAAVEFMKTVENNGRKKLEPGGSQFIVTD | soluble
6 | MSLEKHNEHKTLNHKSSKEKDQITNRLKRIEGQVRGIQNMVENDRYCVDILVQISAVQAAMKNVALHLLEDHAHHCVADAIKSGDGEQAISELLDVFKKFTKSEGHHHHHH | soluble
7 | MIMKVGIMSDTHDNLSAIRLAVEFFNREGVNLVLHAGDFVAPFVAKELSNLKAPLKGVFGNNDGEREGLREKLGIKDDILTLNLDGLKVVMLHGTDERVVEAFAKSQLYDIVIRGHTHKYGIQEVGRTIVVNPGEVCGYLTGIKSVALLNTTEREVRIINLKTGEILGIISLLEHHHHHH | not soluble
8 | MQRFLDSISAATQAKSPAEHETLVAMADLYAIITCVEYLERAWRANAVSDEDYTRNCSRLIAQFRATRQLVMDDVPSVISFLEEYHLAARAAMNRLQVGVPATVEHANSSDETRRRNFTAAAIQATEAFLTFRDALELGERSVDRLLPYLREILLVLGRMGAVFGTADGDATVQRERIVQWVRRLDAMHAYEQITEEDKRQLAHDVDTLYDTFRRRVGELEM | not soluble
9 | LETLNNASKTIDLQGKISDVDGDTLSITLHGSARFSLNGTQVTFTPNGFVGLDQAVYSVEDGKGGYALANIVAISEDANPPVPNMAPTANDAQFTLDVAKNVTFNIDLVAQRLIADADGDALSIAHIYTANNRATKQGATGITYTPGAFRGVDQFTYVITDGKDGYAINAITVVVNDSTPANKIPTAGPVTAKMLHNDPAITISVNSAVSDADGDTLKIVSISGALGQASINPANALEMLYEPKGFVGTDRFVYVVSDDNGGYAMGEVTVTVTDSNPTAPVANTVQENTLLDTPINIDLSAYISDKETETANLVISNVTNATSPAVATLSGQTVIYTPNGFTGNDILTYTVTDGRHSTNGTIVISVNAHGAHAIQADNLEGGTEPNAPFIHDLSALISTTDPTAGELIVVNAIGGALGTATVTNNILTYTPKLGVFGKDRLIYTVKDSHNPAHYTQGTISI | not soluble
10 | LDRAYLRVENQRYRDKLEAANRELQASLNLLQEDQNAGRQVQMNMLPVTPWSIEGLEFSHRIIPSLYLSGDFVDYFRVDERRVAFYLADVSGHGASSAFVTVLLKFMTTRLLYESRRNGTLPEFKPSEVLAHINRGLINTKLGKHVTMLGGVIDLEKNSLTYSIGGHLPLPVLFVEGQAGYLEGRGLPVGLFDDATYDDRVMELPPSFSLSLFSDGILDVLPGATLKEKEASLPEQVAAAGGTLDGLRQVFGLANLAEMPDDIALLVLSRNLA | not soluble
11 | MAHHHHHHMSLVASQEGLTDLVPCNDQCGGDYTLYTFGQSEKEVTITAPLAPGTRGKSLRVDIKVRHLQIEVPGKGTILAGELYKPINVDDSTWCIQDGKELVVVLTKTNIEYEEWWPHVVIGERQIDLKTLKPPSIRFSDLDGGAQATVAKMMHEQHEKRTDPAFTNA | soluble
12 | MTESIDGNPWRILELVAENEYHLEQDNNVDQLEQFSVIPGFQEELVEFAKKKLLDSIEVQQFLVERDIEFQEKNIASLIDELSDNQDDESNSKEIHLELKSSKNKYEGLRKKIASFKGRQQKAVGFLNSGLEEIRILTSPNDKFCYKVKNASWRCSVDNSIDLQKIKLICEKLIGLEKKMEVTFWTSEIMKLLENLDQRHYAVAFGIIIGMATWEYENSEKYHLLALIHLSIGRDETKTDVLLYWENWENESIEQSIVSLRILMIFYMKISIDDLECRENFEFRICQVIVFILEHKEFESSHLTMITELLGSIEQRFGNFTEMCDIMFTHFEAKAQMFDSYEAKMLVFMRNEHLSLLQTQHIDQCMDTLNILILLYLKIKIDKWTYREIIEQRISQFIICILEHTEFQSIHLTLIIQHLESIEQQFGCFSGKFDNMFKIFELKLQILDRPEQERVSKWIKSLSLRSSISEFSSEHSHSTVTVIEHSEKTYELEQNVRIDLEETLKLEKRIEEVSIEESKKKQEKLELKQREEEEARIKEEEEKQRKILEEEARKKQEEEEARLKAEEELKIYEEEKRKKELEEERKKKEELEIKRKAEEEKKKKALEEEKKRKIAEEKARQKQEKERKKQANKCTFLQNFTFIRHQHPSQTYNERVLDGKVVGLYFSAHWCPPSRDFTPVLAQFYSQVEDNFEILFVSSDNNTQEMNFYLQNFHGDWFHLPLNLCNSMKHRNTKNHIPALIIMKPDGTVITDDGRNLVSQWINDPKALVNHWKAMLN | not soluble
13 | MNINPFANVSLQDYLEIVQIVDSTFPIGSFNHSFGMENYLREDTVTDDKGYEEWQEAYLASQFKYGEGLVIKLVYDAMVTDNIDQVWYYDKVLTVSTQARETRQGTKMIAKQMLRLIQRLHAIPVLDDYQSKIRKGVAFGNPAIVFALYVFNKGLGCNEAIALYGYSVISTMVQNAVRAIPLGQFAGQEIVLRSFSQLEKMTQEIQELDASYLGANTPGLELAQMKHETQVFRLFMSLEHHHHHH | not soluble
14 | MDQQSTRTDITVNVDGFWMLQALLDIRHVAPELRCRPYVSTDSNDWLNEHPGMAVMREQGIVVNDAVNEQVAARMKVLAAPDLEVVALLSRGKLLYGVIDDENQPPGSRDIPDNEFRVVLARRGQHWVSAVRVGNDITVDDVTVSDSASIAALVMDGLESIHHADPAAINAVNVPMEEMLEATKSWQESGFNVFSGGDLRRMGISAATVAALGQALSDPAAEVAVYARQYRDDAKGPSASVLSLKDGSGGRIALYQQARTAGSGEAWLAICPATPQLVQVGVKTVLDTLPYGEWKTHSRV | soluble
15 | MKNLAIFDLDNTLINTDSDHAWPQYLIKKGLVDAAETEAQNEKFYRDYQNGCLDIDAFLKFHLAPLARYSKEELAEFHREFMAEYIIPHISPMQRMLVQSHQMAGDETLVISSTNEFIITPVCHLFGITNIIGTQLETGSDGRYTGNYIGTPSLKEGKITRLNQWLAERGETLQSYGKTYFYSDSKNDLPLLRLVSEPVAVNPDAELEKEAKEKGWPVLNFK | soluble
16 | AEVRPPFTYASLIRQAILESPEKQLTLNEIYNWFTRMFPYFRRNAATWKNAVRHNLSLHKYFVRVENVKGAVWTVDEVEFQKRRPQK | soluble
17 | MTTHHIKKSYSPNTKLSDLICENYDLLLVITRFGISLGFGEKSIREVCEDNKVNTNTLMAVINALINRPEHPSETVLSDLSAPSLINYLRKSHNYFLEFRLPLLRQDLLAALSNCPSEVVFVIRQFYDEYVEEVRKHMSYEEKTVFPYVEKLLGGKLDKRSHYRIDIFSKRHDQIELKISELKNLLIKYYPTSSGYELNSVLHDIFSSEDDLSAHNFVEDHLFVPLIRKIEKENGL | not soluble
18 | MGSDKIHHHHHHMNLPTAHPLIDEATLTIVVCHILDSKTATLGEWHSEAIAHHIINNVTAGLQRITGIANNGSEQLSWSVILKILHLQPENAGSIFNSSQDPTHWNYWQREALIYTSGMLDNLTGDLVAPRCFGITEPSANVVWLWLEDIQGSSGSTWTMERFGLAARHLGYLQGSYVMAQSLPYEPWLSRGWHRAWVSNIDNTALEAWREPAVWQHPLLKEIFSPDIGDRVMDLWSDRHILLDAVDKAPHTLCHFDITPNNLFSRHNPDGNDQTVLIDWSFVGYGVLGEDIINLVLDSVFLLFVNGSSLIPLEKLVLEGYLTGLRSAGWNGDERIVRFTYAALAALHFGLIAGRLLKLVQNESRHSWLEQRFGRTFDEIITSRAIAITHGLELADEARLLLPSLFVIN | not soluble
19 | MSINIEQAIIHEISQDSQGQLRCRLRPQPLLNGQAVEMMLEELHQTYTSKSGKGFGYFGIHGDDGEANPAFANALKEYRAGDLGFVEFTGQASKLLQEELAKYDFSQGGFLLMSCYTSMASDYLFVALLSAKSSMTVLDDMELSQNNHLDLNNIQLAARIDLTELQADKDSRKYISFIRGRAGRKVADFFLDFMGCVEGVNTKAQNKTLMNAVEDFVASSDLTKEERQQCRNKVFEYCSERFDEGADIEIKDLADELADQGMESFYDFARGGSYELDEEFPADKSTLRQLKKFSGTGGGVTISFDGGHLGQRVIYDPISDTILIKGVPANLKDQLDRRLKGE | soluble
20 | MKFIVKLQAEITIKSRPVRKRFTKILESSVKNVLRRIDEQVTTRMNWDNIEVNTKDNSPENRERLVEALKCIPGIPMFLEVQQSEFVDVHDIYEKTLAVHAESIENKTFCVRAKRTGNHDFNSLKVEQYVGGGLNQQVESAKVKLKNPDVTIHLEIKNKDLFIVTQRHKGLGGFPIATQEDVLSLMSGGFDSGVSSYQMIKKGARTHYCFFNLGGSAHEVGVKQISYYLWNKFGASHKVKFFAVDFEPVVAEILENVENSQMGVVLKRMMIRAATKIAERGKIQALVTGESLGQVSSQTLTNLNVINRVTDTLILRPLAAYDKQDIIDIARKIGTEEFSKTIPEYCGVISKKPTVKAVLSKVEEEEGNFDFDVLDKVVSETRVYDIRDIGKEAEEEIHAVDLVENIPENAVVVDIRSPEEEEDKPLELGDVEVKHIPFYKLSTQFGDLDMTKEYLLYCDHGVMSKLQALYLLDNGFKNVKVYRP | not soluble
21 | MAHHHHHHMDGEAAAPTGGAGPKYIVEHLDELEEWSILEYIHICETVKDQNVIFTKFDRPFGEVSEEHNPTCYKQPISELKDKFEWKKICLLDMKATSTLTCSDREHLDYLLFGGILGNVPSDDRTSILRKCQFVISRNLGDMQMTTNTAVLVCHIILDKHVEFKDIPFVDSPEIPLRNEKETMVLPFRFVSKSFFTGMEGDRNVPVLPRNFTEYLIGLGDQRVGDLDEFLSGVVV | soluble
22 | MTPGFPLPKPDVLSRPFWDFAQRGVLSLQRCRHCGDVHFPAAPVCPACLSEQQEWVPASGRGTLFSWCEFHKGYWDSVASLLPYRVAVIKLNEGPLLISNLVDVADCAALRADAPVEVVFRPVSADINLPVFRLRHAY | not soluble
23 | SKIASFDVDAQKGFTPLCPDELPVPGGDAIGGALNQLASRAALRLGSKDAHSPKAAWVVESAEQMLRPLAYPDADLTWVSHCVPGTPGFELLDELPRPIDYDFFVWKGVEPDLHPYGACYHDLAERRSTGVIEYLRQNGVSHVLVGGLALDYCVKNTALQLRRAGFEVLLYLPACRAIAEDTAQRACDEMRDAGVILCADLERLDSALA | not soluble
